Columns and labels:
[1] = target: T1, EcR/usp heterodimer (Drosophila melanogaster, UniProt P34021;P20153 P34021:1-878,P20153:1-508); experiment: competition; does not compete hsp27-EcRE binding
T1 sequence 1: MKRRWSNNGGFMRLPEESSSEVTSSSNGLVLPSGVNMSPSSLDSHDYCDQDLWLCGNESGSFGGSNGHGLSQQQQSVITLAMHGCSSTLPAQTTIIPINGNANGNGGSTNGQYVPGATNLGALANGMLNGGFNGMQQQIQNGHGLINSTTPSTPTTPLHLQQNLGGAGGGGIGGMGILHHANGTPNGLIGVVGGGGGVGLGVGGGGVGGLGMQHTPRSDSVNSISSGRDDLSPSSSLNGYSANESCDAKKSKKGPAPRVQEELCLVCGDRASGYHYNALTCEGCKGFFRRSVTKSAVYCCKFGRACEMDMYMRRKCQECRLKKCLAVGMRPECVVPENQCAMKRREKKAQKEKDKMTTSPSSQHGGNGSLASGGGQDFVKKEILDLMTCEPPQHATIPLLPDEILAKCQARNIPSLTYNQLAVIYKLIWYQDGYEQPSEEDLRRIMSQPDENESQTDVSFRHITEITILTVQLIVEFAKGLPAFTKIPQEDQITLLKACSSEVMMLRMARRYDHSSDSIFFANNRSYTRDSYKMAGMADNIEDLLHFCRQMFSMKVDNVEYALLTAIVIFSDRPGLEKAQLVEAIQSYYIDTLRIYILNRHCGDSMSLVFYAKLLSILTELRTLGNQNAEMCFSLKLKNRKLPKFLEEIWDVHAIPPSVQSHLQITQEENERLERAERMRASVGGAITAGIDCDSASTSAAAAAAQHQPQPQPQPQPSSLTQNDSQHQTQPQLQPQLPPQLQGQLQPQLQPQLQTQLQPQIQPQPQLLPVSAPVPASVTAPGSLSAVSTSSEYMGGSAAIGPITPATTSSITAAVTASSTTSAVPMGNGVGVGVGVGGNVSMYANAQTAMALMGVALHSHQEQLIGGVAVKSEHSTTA
T1 sequence 2: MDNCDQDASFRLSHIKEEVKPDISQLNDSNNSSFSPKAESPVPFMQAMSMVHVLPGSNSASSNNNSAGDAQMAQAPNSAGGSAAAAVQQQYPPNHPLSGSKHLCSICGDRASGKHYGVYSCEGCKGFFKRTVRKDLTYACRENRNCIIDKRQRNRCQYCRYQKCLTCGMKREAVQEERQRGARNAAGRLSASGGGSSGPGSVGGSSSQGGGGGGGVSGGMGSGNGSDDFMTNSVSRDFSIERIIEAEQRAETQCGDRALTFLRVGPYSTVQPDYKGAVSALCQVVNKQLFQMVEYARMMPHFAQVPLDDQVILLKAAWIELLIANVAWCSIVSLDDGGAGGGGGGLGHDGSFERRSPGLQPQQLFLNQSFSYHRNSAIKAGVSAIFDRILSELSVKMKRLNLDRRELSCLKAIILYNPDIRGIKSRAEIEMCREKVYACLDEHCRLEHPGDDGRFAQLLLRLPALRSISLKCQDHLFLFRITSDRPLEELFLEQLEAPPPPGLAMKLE

[2] = target: T1, EcR/usp heterodimer; experiment: competition; competes as effectively as hsp27-EcRE
[3] = target: T2, ultraspiracle (usp) (Drosophila melanogaster, UniProt P20153 SEQ:1-513); experiment: EMSA; usp alone; details: label: 32P
T2 sequence: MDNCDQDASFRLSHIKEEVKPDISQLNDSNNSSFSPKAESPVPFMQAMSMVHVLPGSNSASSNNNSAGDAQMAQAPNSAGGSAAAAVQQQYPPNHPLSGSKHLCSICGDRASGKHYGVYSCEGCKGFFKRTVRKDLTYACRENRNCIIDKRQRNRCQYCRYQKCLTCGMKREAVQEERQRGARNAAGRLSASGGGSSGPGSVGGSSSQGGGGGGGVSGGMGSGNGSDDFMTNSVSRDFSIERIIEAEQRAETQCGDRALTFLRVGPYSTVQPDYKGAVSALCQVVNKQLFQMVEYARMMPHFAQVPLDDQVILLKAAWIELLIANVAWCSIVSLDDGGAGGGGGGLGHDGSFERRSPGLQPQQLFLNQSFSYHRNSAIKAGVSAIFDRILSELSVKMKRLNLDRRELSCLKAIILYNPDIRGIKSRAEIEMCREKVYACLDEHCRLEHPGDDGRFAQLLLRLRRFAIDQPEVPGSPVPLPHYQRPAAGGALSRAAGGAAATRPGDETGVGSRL
Protocol: (§1) For gel mobility shift assay, proteins were incubated with binding buffer, which contained 100 mM KCl, 7.5% glycerol, 20 mM HEPES pH 7.5, 2 mM DTT and 0.1% NP-40, on ice for 20 minutes in the presence of 2 μg of nonspecific competitor poly dI-dC and other oligo competitors. Then approximately 1 ng of ^32P-dCTP probe, which was labelled to specific activity about 1-5×10^8 cpm/μg by fill-in reaction with Klenow fragments, was added to the reaction and incubated at room temperature for 20 minutes. Antiserum or preimmune serum was added 10 minutes after the probe was added. The reaction was then loaded into 5% non-denaturing polyacrylamide gel in 0.5×TBE running buffer [1×TBE comprises 0.089 M Tris borate, 0.089 M boric acid and 0.002 M EDTA]. After electrophoresis, the gel was dried for autoradiography.
(§2) The EcR and usp interaction was also tested under more defined conditions. In vitro translated EcR and usp were prepared and their interaction was assayed by gel mobility shift assays. […] To test whether usp can complement EcR DNA binding, as it does with mammalian receptors, both usp and EcR were co-incubated in the reaction. In the presence of both receptors, a novel high affinity DNA binding complex appeared. […] This complex is proposed to be a heterodimeric species, which is consistent with the observation of other usp heterodimers.

[4] = target: T1, EcR/usp heterodimer; experiment: EMSA; high affinity complex; usp antibody supershift; details: label: 32P
Protocol: as §1, §2

[5] = target: T3, Ecdysone receptor (EcR) (Drosophila melanogaster, UniProt P34021 P34021:1-878); experiment: EMSA; EcR alone; details: label: 32P
T3 sequence: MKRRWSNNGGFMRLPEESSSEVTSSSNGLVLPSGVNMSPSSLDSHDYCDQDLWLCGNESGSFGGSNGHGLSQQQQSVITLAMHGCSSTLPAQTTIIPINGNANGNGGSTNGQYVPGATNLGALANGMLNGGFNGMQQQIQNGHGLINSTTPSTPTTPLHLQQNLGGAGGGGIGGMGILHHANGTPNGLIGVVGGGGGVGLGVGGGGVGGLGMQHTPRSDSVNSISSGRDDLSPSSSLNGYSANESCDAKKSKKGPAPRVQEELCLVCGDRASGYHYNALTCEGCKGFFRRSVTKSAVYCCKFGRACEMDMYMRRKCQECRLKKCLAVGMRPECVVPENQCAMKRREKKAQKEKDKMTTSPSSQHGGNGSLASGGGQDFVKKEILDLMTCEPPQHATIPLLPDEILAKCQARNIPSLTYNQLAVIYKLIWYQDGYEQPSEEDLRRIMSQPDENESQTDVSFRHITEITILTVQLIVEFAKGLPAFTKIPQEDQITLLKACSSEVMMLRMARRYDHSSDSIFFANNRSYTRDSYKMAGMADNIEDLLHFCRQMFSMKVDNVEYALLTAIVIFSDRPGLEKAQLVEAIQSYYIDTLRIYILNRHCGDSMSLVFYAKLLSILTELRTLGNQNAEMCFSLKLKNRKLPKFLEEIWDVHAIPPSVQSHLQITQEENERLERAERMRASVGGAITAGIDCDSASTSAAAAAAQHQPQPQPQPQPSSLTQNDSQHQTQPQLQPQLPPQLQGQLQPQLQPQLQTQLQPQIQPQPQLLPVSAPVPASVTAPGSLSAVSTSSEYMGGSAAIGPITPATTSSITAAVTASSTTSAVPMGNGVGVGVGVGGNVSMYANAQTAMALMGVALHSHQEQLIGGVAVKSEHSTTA
Protocol: as §1, §2

[6] = target: T4, usp/VDR heterodimer (Drosophila melanogaster / Homo sapiens, UniProt P20153;P11473 P20153:1-508,P11473:1-427); experiment: EMSA; usp dependent; usp antibody supershift; details: label: 32P
T4 sequence 1: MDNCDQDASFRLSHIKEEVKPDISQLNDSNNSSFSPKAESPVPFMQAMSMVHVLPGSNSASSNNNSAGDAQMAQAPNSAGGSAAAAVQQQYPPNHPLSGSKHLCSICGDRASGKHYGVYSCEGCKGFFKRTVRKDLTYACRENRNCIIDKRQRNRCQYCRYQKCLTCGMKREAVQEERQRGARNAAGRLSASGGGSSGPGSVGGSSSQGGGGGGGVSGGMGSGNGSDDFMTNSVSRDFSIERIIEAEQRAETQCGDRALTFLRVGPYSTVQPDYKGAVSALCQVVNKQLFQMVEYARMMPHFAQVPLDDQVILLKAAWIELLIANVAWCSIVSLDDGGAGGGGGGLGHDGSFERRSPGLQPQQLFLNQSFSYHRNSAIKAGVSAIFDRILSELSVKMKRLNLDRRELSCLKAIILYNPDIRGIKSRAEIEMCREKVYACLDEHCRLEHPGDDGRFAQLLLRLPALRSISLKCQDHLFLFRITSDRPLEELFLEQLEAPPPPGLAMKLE
T4 sequence 2: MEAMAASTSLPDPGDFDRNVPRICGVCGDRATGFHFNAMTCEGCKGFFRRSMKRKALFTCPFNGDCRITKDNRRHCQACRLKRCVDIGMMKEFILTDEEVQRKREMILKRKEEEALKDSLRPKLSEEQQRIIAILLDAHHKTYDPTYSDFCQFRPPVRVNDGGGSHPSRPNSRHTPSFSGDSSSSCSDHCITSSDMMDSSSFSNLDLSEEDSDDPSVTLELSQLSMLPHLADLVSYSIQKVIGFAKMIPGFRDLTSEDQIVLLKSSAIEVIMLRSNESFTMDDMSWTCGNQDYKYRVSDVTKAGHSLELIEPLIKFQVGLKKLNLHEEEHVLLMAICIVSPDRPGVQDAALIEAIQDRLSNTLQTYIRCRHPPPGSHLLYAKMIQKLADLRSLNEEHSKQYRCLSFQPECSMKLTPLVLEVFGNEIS
Protocol: as §1
Using in vitro translated usp protein, interaction of usp with three mammalian nuclear receptors (TRβ, VDR and PPAR) was tested in gel mobility shift assays with the appropriate response element for each of the three receptors as the probes.

B1: 11N-EcRE (dsDNA)
DNA 1: ATGCTGTGCATTGAACGTGCTCGA
DNA 2: TCGAGCACGTTCAATGCACAGCAT
B1: no binding [1].

B2: Eip28/29-EcRE (dsDNA)
DNA 1: TAAAGGATCTTGACCCCAATGAACTTCTTA
DNA 2: TAAGAAGTTCATTGGGGTCAAGATCCTTTA
B2: binds [2].

B3: hsp27-EcRE (dsDNA)
DNA 1: ATTGGACAAGTGCATTGAACCCTTGTCTCT
DNA 2: AGAGACAAGGGTTCAATGCACTTGTCCAAT
B3: no binding [3]; binds [4]; no binding [5].

B4: SPP1-VDRE (DR3, printed SSP1) (dsDNA)
DNA 1: GGTTCACGAGGTTCA
DNA 2: TGAACCTCGTGAACC
B4: binds [6].
